# Publication PMC9599297, “Graphitic Carbon Nitride and IGZO Bio-FET for Rapid Diagnosis of Myocardial Infarction”
# Target: cardiac troponin I (cTnI) (UniProt P19429 2-210)
# Assay: FET aptasensor (IGZO/PCN-Au NPs), drain current change; 47% current change; response 0.01-1000 ng/mL, LOD 0.0066 ng/mL (no Kd); 10 mM PBS pH 7.4 (PBS tablets: 2.7 mM KCl, 137 mM NaCl), 10 min incubation, water wash; surface blocked with MCH and 0.10 mg/mL BSA; temperature not stated
# Details: protein: commercial
# Chain of cardiac troponin I (cTnI) (P19429 2-210): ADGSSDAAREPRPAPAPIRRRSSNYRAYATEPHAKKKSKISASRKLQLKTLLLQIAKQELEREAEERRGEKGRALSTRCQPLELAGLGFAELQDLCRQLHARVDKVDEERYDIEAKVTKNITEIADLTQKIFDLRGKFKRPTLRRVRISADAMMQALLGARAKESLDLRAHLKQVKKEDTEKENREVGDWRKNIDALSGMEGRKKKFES
binder,measurement,value
"CGTGCAGTACGCCAACCTTTCTCATGCGCTGCCCCTTA (ssDNA, ThiC6 (thiol-C6) at 5' end, immobilised on Au NPs) [Tro4 anti-cTnI DNA aptamer]",binding result,binds
